Test results: patent US20100266532A1, “METHODS FOR INHIBITING SCARRING” (Renovo Limited, priority 2007, published 2010)

Experiments:
[1] = system: human wounds; test: Human study, two incidences of treatment approximately 24 hours apart, lay panel VAS scar scoring and macroscopic images; assay type: in vivo
Experimental: In this study, control treatments using TGFβ3 and Placebo were administered in two incidences of treatment (each by intradermal injection), the first prior to wounding and the second approximately 24 hours after wounding. […] To test the effect of control treatment with TGF-β3, ToScar of the TGFβ3 scar was subtracted from the anatomically matched Placebo ToScar on the other arm on each subject. ToScar was calculated as the sum of VAS scores (mm) from week 6 and months 3, 4, 5, 6 and 7. The scars were scored by an independent lay panel at 6 time points after dosing (week 6, months 3-7) using a 100 mm VAS line.
The macroscopic images are from within subject scars produced on healing of placebo treated and TGFβ3 control treated wounds (dosed twice with 50 ng, 200 ng or 500 ng/100 μl TGFβ3 per cm of wound margin in two incidences of treatment approximately 24 hours apart) in a clinical trial conducted by the inventors. The same amount of TGF-β3 was administered in each incidence of treatment, and the amounts used are shown in the captions (50 ng/100 μl TGFβ3 per cm of wound margin shown top left, with placebo from the same subject top right; 200 ng/100 μl TGFβ3 per cm of wound margin shown middle left, with placebo from the same subject middle right; and 500 ng/100 μl TGFβ3 per cm of wound margin shown bottom left, with placebo from the same subject bottom right).
TGFβ3 and Placebo were administered by means of intradermal injection in two incidences of treatment, the first prior to wounding and the second approximately 24 hours later. […] The scars were scored by an independent lay panel at 6 time points after dosing (week 6, months 3-7) using a 100 mm VAS line.

[2] = system: human wounds; test: Clinical trial, two incidences of treatment within approximately 1 hour, lay panel VAS scar scoring; assay type: in vivo
Experimental: FIG. 2 illustrates data from a clinical trial conducted by the inventors. In this study TGFβ3 and Placebo were each administered in two separate incidences of treatment (by means of two intradermal injections). However, unlike the methods of the present invention, the first incidence of treatment took place immediately prior to wounding but the second incidence of treatment occurred immediately after wound closure, i.e., both doses being administered within approximately 1 hour of one another (the first ten to thirty minutes prior to wounding, and the second ten to thirty minutes post-wounding). […] To test the treatment effect, ToScar of the TGFβ3 scar was subtracted from the anatomically matched Placebo ToScar on the other arm on each subject. ToScar was calculated as the sum of VAS scores (mm) from week 6 and months 3, 4, 5, 6 and 7. The scars were scored by an independent lay panel at 6 time points after dosing (week 6, months 3-7) using a 100 mm VAS line.
FIG. 8 illustrates data from a clinical trial conducted by the inventors in which either TGF-β3 or placebo were administered in two incidents of treatment (each comprising administration of the test substance by intradermal injection), the first incidence occurring prior to wounding and the second immediately after wound closure, i.e., both doses of TGF-β3 being the same as one another, and administered within approximately 1 hour (10-30 mins prior to wounding and 10-30 mins post wounding).

[3] = system: 1 centimetre experimental wound; test: Clinical trial, single intradermal injection, lay panel VAS scar scoring (ToScar); assay type: in vivo, human
Experimental: FIG. 1 illustrates data from a clinical trial conducted by the inventors to generate a dose response curve indicative of the anti-scarring effect achieved using various different doses of TGF-β3 administered in a single incidence of treatment. Either TGF-β3 or placebo were administered as a single intradermal injection to a 1 centimetre experimental wound. […] To test the treatment effect, ToScar of the TGFβ3 scar was subtracted from the anatomically matched Placebo ToScar on the other arm on each subject. ToScar was calculated as the sum of VAS scores (mm) from week 6 and months 3, 4, 5, 6 and 7. The scars were scored by an independent lay panel at 6 time points after dosing (week 6, months 3-7) using a 100 mm VAS line.

[4] = system: experimental rat wounds; test: Rat model of scar formation, dose response, two equal doses separated by 24 hours; assay type: in vivo; details: repeated treatment with low doses or with high doses (range 5-500 ng/cm), 24 hours apart
Experimental: FIG. 10 illustrates a “bell-shaped” dose response curve in a rat model of scar formation in response to different doses of TGF-β3. TGF-β3 was provided to wounds via two injections of TGF-β3 separated by approximately 24 hours. The amount of TGF-β3 provided in each injection was the same in each incidence of treatment.
FIG. 10 illustrates that the TGF-β3 “bell-shaped” dose response curve observed in human subjects is also found in experimental animals. Here, TGF-β3 was provided to experimental rat wounds, in two incidences of treatment separated by 24 hours (the first incidence of treatment occurring at, or around, the time of wounding). The amount of TGF-β3 administered per centimetre of wound in each incidence of treatment is shown on the X-axis (5 ng/cm, 50 ng/cm, 200 ng/cm or 500 ng/cm).

[5] = system: scars produced on healing of wounds; test: Profilometry analysis of silicone moulds from scars, dosed twice approximately 24 hours apart; assay type: in vivo, human
Description: Note that this is not a method of treatment in accordance with the invention, but (along with FIG. 6) serves to provide comparative data illustrating the surprising effectiveness of a method of treatment in accordance with the invention.

[6] = dosed twice with 50 ng/100 μl per cm approximately 24 hours apart
[7] = dosed twice with 200 ng/100 μl per cm approximately 24 hours apart

B1: TGF-β3: well-known anti-scarring growth factor, Sequence ID No. 1; labelled "Juvista" in FIGS. 8 and 9 (protein, listed as Homo sapiens)
chain: ALDTNYCFRNLEENCCVRPLYIDFRQDLGWKWVHEPKGYYANFCSGPCPYLRSADTTHSTVLGLYNTLNPEASASPCCVPQDLEPLTILYYVGRTPKVEQLSNMVVKSCKCS
effectiveness relative to other doses ([1]; 500 ng in each of two incidences of treatment separated by 24 hours): notably more effective than the others
effectiveness relative to other doses (mean VAS scores over time) ([1]; 500 ng per centimetre in each incidence of treatment, approximately 24 hours apart): surprisingly more effective than the other methods of treatment
inhibition of scarring, macroscopic images ([1]; 500 ng/100 μl per cm twice approximately 24 hours apart (highest dose), versus 50 and 200 ng): greatest inhibition of scarring achieved
inhibition of scarring ([1]; two applications of 5, 50, 200 and 500 ng/100 μl per cm, prior to and approximately 24 hours post-wounding): effectively inhibited
inhibition of scarring (mean VAS scores over time) ([1]; two applications of 5, 50, 200 or 500 ng/100 μl per cm, prior to wounding and approximately 24 hour post-wounding, week 6 to month 7): scarring is inhibited
inhibition of scarring (mean VAS scores over time) ([2]; two applications of 5, 50, 200 and 500 ng/100 μl per cm within approximately 1 hour, week 6 to month 7): scarring is inhibited
inhibition of scarring ([2]; two applications of 5, 50, 200 and 500 ng/100 μl per cm, both within approximately 1 hour): effectively inhibited
scar improvement (placebo ToScar minus TGFβ3 ToScar, sum of VAS scores), average ([2]; two applications within approximately 1 hour, 200 ng/100 μl per cm, maximum improvement): > 40 mm
drug efficacy at top of dose range ([2]; two applications within approximately 1 hour, 500 ng/100 μl per cm, versus 200 ng): reduction in drug efficacy
inhibition of scarring ([3]; single application of 50 ng, 200 ng or 500 ng/100 μl per cm of wound margin): effectively inhibited
scar improvement (placebo ToScar minus TGFβ3 ToScar, sum of VAS scores), average ([3]; single application, 200 ng/100 μl per cm of wound margin, maximum improvement): > 50 mm
drug efficacy at top of dose range ([3]; single application, 500 ng/100 μl per cm of wound margin, versus 200 ng): reduction in drug efficacy
inhibition of scarring [4]: little inhibition of scarring
reduction in scar surface area compared to placebo [5, 6]: 30.21%
scar surface area [5, 6]: 12.823 mm^2
reduction in scar raised volume compared to placebo [5, 7]: 73.33%
reduction in scar surface area compared to placebo [5, 7]: 75.19%
scar raised volume [5, 7]: 0.0008 mm^3
scar surface area [5, 7]: 3.532 mm^2
inhibition of scarring, 3-dimensional simulations ([5]; dosed twice with 500 ng/100 μl per cm approximately 24 hours apart): Maximal inhibition of scarring
